Reference: US20160008485A1 (Pfizer, published 2016)
Where “and” joins values, the source holds several entries; their conditions need not be identical. Equal values may be shown once.

T1: human 5T4 antigen on cells (MDAMB435/5T4 transfectants; MDA-MB-468) (human, UniProt Q13641 32-420)
T1 sequence (looked up): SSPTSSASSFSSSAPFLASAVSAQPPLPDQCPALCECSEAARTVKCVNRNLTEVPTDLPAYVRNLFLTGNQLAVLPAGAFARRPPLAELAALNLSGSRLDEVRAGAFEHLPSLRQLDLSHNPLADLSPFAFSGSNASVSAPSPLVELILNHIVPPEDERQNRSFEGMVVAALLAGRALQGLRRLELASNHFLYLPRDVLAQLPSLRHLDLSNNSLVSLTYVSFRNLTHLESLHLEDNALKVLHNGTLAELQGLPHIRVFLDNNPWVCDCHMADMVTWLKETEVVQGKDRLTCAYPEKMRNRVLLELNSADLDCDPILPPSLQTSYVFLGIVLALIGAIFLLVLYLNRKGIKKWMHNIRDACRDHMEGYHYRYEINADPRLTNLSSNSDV

B1: parental anti-5T4 antibody (wild type human IgG1) (antibody)
heavy: not shown
light: DIQMTQSPSSLSASVGDRVTITCKASQSVSNDVAWYQQKPGKAPKLLIYFATNRYTGVPSRFSGSGYGTDFTLTISSLQPEDFATYYCQQDYSSPWTFGQGTKVEIKRTVAAPSVFIFPPSDEQLKSGTASVVCLLNNFYPREAKVQWKVDNALQSGNSQESVTEQDSKDSTYSLSSTLTLSKADYEKHKVYACEVTHQGLSSPVTKSFNRGEC
notes: Humanized, human IgG1/kappa; also called Parental anti-5T4 Ab; wt IgG1
B2: 5T4-L443C-mcMMAD (antibody)
heavy: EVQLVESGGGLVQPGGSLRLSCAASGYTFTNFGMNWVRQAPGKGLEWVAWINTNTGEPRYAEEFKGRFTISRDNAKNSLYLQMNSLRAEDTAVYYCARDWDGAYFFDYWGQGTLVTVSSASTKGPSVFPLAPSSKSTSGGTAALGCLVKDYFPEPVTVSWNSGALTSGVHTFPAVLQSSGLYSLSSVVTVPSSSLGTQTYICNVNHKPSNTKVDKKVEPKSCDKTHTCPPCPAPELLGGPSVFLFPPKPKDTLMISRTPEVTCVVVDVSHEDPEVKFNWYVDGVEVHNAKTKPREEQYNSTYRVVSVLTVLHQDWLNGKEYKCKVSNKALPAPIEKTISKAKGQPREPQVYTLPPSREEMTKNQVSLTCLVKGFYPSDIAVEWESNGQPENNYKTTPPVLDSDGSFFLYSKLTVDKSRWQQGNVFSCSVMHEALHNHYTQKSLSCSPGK
light: B1 light
modifications: mcMMAD on engineered Cys 443 (EU)
notes: Antibody-drug conjugate; also called 5T4-L443C-mcMMAD (1)
B3: 5T4-V422C-mcMMAD (antibody, human IgG1, kappa)
heavy: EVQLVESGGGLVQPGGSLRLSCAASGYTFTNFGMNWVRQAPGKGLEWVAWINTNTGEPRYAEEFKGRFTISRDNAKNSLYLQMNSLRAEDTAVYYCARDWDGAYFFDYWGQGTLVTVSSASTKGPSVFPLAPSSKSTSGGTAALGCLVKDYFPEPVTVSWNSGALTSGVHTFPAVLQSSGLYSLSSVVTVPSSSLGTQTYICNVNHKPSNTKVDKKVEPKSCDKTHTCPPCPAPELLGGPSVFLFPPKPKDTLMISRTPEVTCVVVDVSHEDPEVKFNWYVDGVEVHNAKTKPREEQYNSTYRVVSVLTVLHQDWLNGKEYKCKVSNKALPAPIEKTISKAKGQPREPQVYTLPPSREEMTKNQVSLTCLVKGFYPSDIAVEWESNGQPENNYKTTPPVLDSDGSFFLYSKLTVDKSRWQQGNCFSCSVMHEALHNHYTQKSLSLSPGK
light: B1 light
modifications: mcMMAD on engineered Cys 422 (EU)
notes: Antibody-drug conjugate
B4: 5T4-L398C-mcMMAD (antibody, human IgG1, kappa)
heavy: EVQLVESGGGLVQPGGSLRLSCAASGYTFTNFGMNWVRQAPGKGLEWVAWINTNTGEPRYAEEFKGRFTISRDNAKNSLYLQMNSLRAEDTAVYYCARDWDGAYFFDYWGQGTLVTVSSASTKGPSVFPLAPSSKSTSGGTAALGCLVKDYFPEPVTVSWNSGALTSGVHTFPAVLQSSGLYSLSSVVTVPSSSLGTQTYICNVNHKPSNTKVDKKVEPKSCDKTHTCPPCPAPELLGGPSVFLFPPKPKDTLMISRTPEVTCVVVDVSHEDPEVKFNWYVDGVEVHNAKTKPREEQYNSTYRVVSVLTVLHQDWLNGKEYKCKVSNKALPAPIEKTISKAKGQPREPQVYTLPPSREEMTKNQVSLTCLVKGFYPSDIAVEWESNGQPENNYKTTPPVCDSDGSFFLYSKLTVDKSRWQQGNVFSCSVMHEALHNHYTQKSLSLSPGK
light: B1 light
modifications: mcMMAD on engineered Cys 398 (EU)
notes: Antibody-drug conjugate
B5: 5T4-E380C-mcMMAD (antibody, human IgG1, kappa)
heavy: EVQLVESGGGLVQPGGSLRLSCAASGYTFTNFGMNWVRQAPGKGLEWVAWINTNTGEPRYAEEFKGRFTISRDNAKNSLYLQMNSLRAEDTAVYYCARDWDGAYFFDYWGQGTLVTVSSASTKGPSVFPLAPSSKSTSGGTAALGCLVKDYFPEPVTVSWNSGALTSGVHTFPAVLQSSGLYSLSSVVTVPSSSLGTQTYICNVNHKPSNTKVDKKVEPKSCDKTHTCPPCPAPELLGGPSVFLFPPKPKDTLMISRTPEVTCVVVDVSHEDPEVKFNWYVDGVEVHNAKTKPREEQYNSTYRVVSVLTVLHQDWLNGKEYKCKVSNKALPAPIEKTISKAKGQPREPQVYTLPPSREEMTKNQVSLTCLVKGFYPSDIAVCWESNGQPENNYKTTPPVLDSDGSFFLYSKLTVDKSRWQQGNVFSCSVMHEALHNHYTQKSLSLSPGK
light: B1 light
modifications: mcMMAD on engineered Cys 380 (EU)
notes: Antibody-drug conjugate

The binders below were run against T2, human FcRn (human, UniProt P55899 24-297; P61769 21-119, limits assumed, biotinylated through an engineered Avi-tag) (assay: BIAcore SPR, steady state, pH 6.0, biotinylated human FcRn on SA chip).
T2 construct: Immobilised on a streptavidin chip; not shown: engineered Avi-tag
T2 sequence (P55899 24-297 limits assumed, chain 1 of 2): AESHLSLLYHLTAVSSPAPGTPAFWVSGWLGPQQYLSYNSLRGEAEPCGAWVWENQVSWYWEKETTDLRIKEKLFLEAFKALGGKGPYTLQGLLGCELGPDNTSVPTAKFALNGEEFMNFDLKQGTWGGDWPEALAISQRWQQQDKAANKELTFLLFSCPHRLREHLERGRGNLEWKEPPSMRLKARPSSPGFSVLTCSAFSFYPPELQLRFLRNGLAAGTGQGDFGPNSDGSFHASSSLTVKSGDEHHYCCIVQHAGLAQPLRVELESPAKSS
T2 sequence (P61769 21-119 limits assumed, chain 2 of 2): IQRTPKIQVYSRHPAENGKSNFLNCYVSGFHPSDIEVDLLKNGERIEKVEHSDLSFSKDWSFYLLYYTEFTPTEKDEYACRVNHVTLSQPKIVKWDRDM
Binder B1 has a Kd of 493 nM. For B2, the Kd was 697 nM and 518 nM. In the case of B3, the Kd is reported as 402 nM. B4 was tested, and the Kd was 704 nM. In the case of B5, the Kd is reported as 409 nM.

Target: T2, human FcRn
Experiment: as above
Remark: another data set of the same source
Text: Binding is detected by surface plasmon resonance (SPR) of laser light refracting from the surface. Human FcRn was specifically biotinylated through an engineered Avi-tag using the BirA reagent (Catalog #: BIRA500, Avidity, LLC, Aurora, Colo.) and immobilized onto a streptavidin (SA) sensor chip to enable uniform orientation of the FcRn protein on the sensor.
B1 gave a Kd of 412 nM.

These binders were tested against T1, human 5T4 antigen on cells … (assay: cell-based or functional assay).
In the case of B2, the “IC50, growth inhibition (MTS), MDA-MB-468 cells (5T4 expression 2+)” value (“IC50, growth inhibition (MTS)” for short) is reported as 20 µg/mL and the “IC-50, growth inhibition (MTS), MDAMB435/5T4 cells (5T4 expression 3+)” value (shortened to “IC-50, growth inhibition (MTS)”) is reported as 120 ng ADC/ml. For B3, the “IC50, growth inhibition (MTS)” value was 36 µg/mL and the “IC-50, growth inhibition (MTS)” value was 270 ng ADC/ml. For B4, the “IC50, growth inhibition (MTS)” value was 13 µg/mL and the “IC-50, growth inhibition (MTS)” value was 160 ng ADC/ml. In the case of B5, the “IC50, growth inhibition (MTS)” value is reported as 8.1 µg/mL and the “IC-50, growth inhibition (MTS)” value is reported as 170 ng ADC/ml.
